The source of these data is the supplement of paper PMC10724198.

± gives the standard deviation of the averaged measurements.
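Also: PSI is a weighted mean of sequencing reads over stability bins, variants kept only with over 10 reads, mCherry proximal and sfGFP distal, peptide attached via GGGS linker.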

In the data set the test system is Saccharomyces cerevisiae. Description: protein stability index of tFT-peptide fusion (C-terminal peptide) (PSI (0-1 scale)); higher = more stable (slower turnover). To be noted: genetic background: wild type; temperature: 30 C.
Regarding KRSNKGAKKKGK, the protein stability index amounted to 0.672 ± 0.041.
The result for KRTEHTHDRKIK reads 0.721 ± 0.034; that for KSILTRTVNSNQ, 0.6592 ± 0.0031; that for KSKKDQKKNHKK, 0.712 ± 0.0076.
Under KSNRCVQSKRQQ stands 0.686 ± 0.037; under KTERRKEENTGE, 0.665 ± 0.041; under KTGIQTEIRYKE, 0.63727 ± 0.00029.
The result for KTHKKRYRKGNT reads 0.725 ± 0.12; that for KTKKENGRGEKN, 0.697 ± 0.04; that for KTKKIWKKKSNI, 0.713 ± 0.011.
For KTKRMKSIKKSK, the protein stability index amounted to 0.7099 ± 0.0046.
The result for KTNLSNRKKHKG reads 0.653 ± 0.051.
For the sequence KTRTGMWDEQGV, the protein stability index amounted to 0.701 ± 0.016.
The result for KTTSRIKEIIQK reads 0.606 ± 0.017; that for KVEQLPAREAPC, 0.6556 ± 0.0039.
KVFHTDSNPNNK yielded a protein stability index of 0.663 ± 0.016.
Sequence KVGKRQGFSVYV returned a protein stability index of 0.684 ± 0.022.
Regarding KVLRKQRLKGRE, the protein stability index was found to be 0.5238 ± 0.0015.
In the case of KVMSLACRLTSE, the protein stability index was 0.843 ± 0.11.
Regarding KVPNEIKRYVFI, the protein stability index is 0.66446 ± 8.8e-05.
Under KYIGHSENATSK stands 0.71 ± 0.067; under KYKVGLWHRVAK, 0.68 ± 0.16.
In turn, LADFGREKNSLG came in with a protein stability index of 0.703 ± 0.0068.
Under LADLSAPAPCLP stands 0.689 ± 0.091.
In turn, LAGLNDSVRRAV showed a protein stability index of 0.749 ± 0.036.
LAGLRLPNDLGP yielded a protein stability index of 0.712 ± 0.059.
In turn, LAGSHSRTQGRT had a protein stability index of 0.695 ± 0.037.
Sequence LAGVSSPLPPPP yielded a protein stability index of 0.685 ± 0.025.
The result for LAPALSHSPPLT reads 0.715 ± 0.078; that for LARGGAAIGGES, 0.729 ± 0.086; that for LAVPPSLPPPTR, 0.7254 ± 0.0063.
Sequence LCDLGLMLFPFV had a protein stability index of 0.666 ± 0.032.
Consider LCFGGLVLFSFG, for which the protein stability index was determined as 0.601 ± 0.035.
Take LCGAVVEGGGEE: the protein stability index amounted to 0.5743 ± 0.004.
As for LCLFSVRPARLL, the protein stability index amounted to 0.753 ± 0.13.
As for LCLGVLRSDCVV, the protein stability index turned out to be 0.675 ± 0.011.
The sequence LCLREPTITTQW yielded a protein stability index of 0.786 ± 0.3.
Turning to LCPPPRPPRSHL, the protein stability index was determined as 0.941 ± 0.039.
The sequence LCSRICGVVARA displayed a protein stability index of 0.613 ± 0.042.
Sequence LCVVRGLLCSPL gave a protein stability index of 0.628 ± 0.0092.
LDAMNTSWYVKM gave a protein stability index of 0.676 ± 0.025.
With LDARYRSSVGFK, the protein stability index was 0.68876 ± 0.00018.
LDGAGFLLSWYH had a protein stability index of 0.749 ± 0.013.
The sequence LDGIKVKFRRSL registered a protein stability index of 0.698 ± 0.013.
The sequence LDKGNQDHEWTR gave a protein stability index of 0.654 ± 0.023.
Consider LDLAMRQYDLTG, for which the protein stability index was determined as 0.681 ± 0.06.
Consider LDSGSVYMSRDI, for which the protein stability index stood at 0.652 ± 0.015.
In turn, LDSRSELGRGLK displayed a protein stability index of 0.714 ± 0.018.
For LDVFPVWSDANA, the protein stability index amounted to 0.714 ± 0.031.
Under LEGGAGRPDGTG stands 0.671 ± 0.047; under LEGILFGPKIAT, 0.6227 ± 0.0049; under LEHPAHPTKLQL, 0.7067 ± 0.0033.
As for LEKKRRKNKKEG, the protein stability index came out at 0.787 ± 0.14.
Regarding LEMTGGACGGGK, the protein stability index amounted to 0.675 ± 0.029.
Sequence LEPGSYRKRKPP yielded a protein stability index of 0.587 ± 0.023.
The result for LERKRKYSPHDQ reads 0.677 ± 0.025; that for LERSSHRTEFLS, 0.587 ± 0.032.
For LEYLGFSLSGFR, the protein stability index amounted to 0.724 ± 0.016.
Turning to LFAAPARTSAPC, the protein stability index amounted to 0.779 ± 0.055.
Under LFCVAPLGSVSY stands 0.652 ± 0.033; under LFFGVACSWFSV, 0.621 ± 0.013.
As for LFGFLGVAACVV, the protein stability index was 0.483 ± 0.048.
Sequence LFHAPLFPPSSF displayed a protein stability index of 0.657 ± 0.04.
Sequence LFLEGWIRKGVR returned a protein stability index of 0.7427 ± 0.0059.
Sequence LFLPLPRCHALP registered a protein stability index of 0.7037 ± 0.0066.
Under LFLSLSGSYRCI stands 0.532 ± 0.079.
With LFPLSSPFPSTS, the protein stability index was 0.766 ± 0.23.
The result for LFPPPPSPLGHS reads 0.75227 ± 0.00052; that for LFPYPPASALLR, 0.662 ± 0.019.
Regarding LFSLFFPTCFRF, the protein stability index was 0.557 ± 0.0092.
Under LFSPPTFFLFHR stands 0.6445 ± 0.0046; under LFSSLNLFSSRD, 0.7355 ± 0.0033; under LFVEFFACRSFN, 0.722 ± 0.011.
The result for LFVSLLGAFVVG reads 0.529 ± 0.03; that for LFYFPVLSGFLA, 0.578 ± 0.002; that for LGAHRPLLSVLH, 0.661 ± 0.037.
For the sequence LGFPSFFPNVSV, the protein stability index came to 0.6946 ± 0.0017.
In turn, LGGGAGAPPSHW showed a protein stability index of 0.7 ± 0.024.
Regarding LGGPGAVWGRGR, the protein stability index is 0.697 ± 0.0084.
On to LGGWVGGRGVRG, for which the protein stability index stood at 0.717 ± 0.096.
